Data set [1] has as its target T1, NF1 (nuclear factor 1/C) (Sus scrofa (porcine), UniProt P21999 1-506). Briefly: EMSA; 200 mM NaCl; protein:DNA 2.1:1 to 11:1; NF1 binding buffer: 5 mM Tris-Cl pH 8.0, 90 mM NaCl (200 mM for EMSA and Fig. 2d), 0.5 mM EDTA, 5% glycerol, 0.55 mM beta-mercaptoethanol, 1 ug BSA; TBP: same + 2 mM MgCl2; 25 min, room temperature. The following applies: protein: recombinant; tags: 6xHis; chain copies: 2; label: 5'-biotin on both strands.

For data set [2], the target named is T1, NF1 (nuclear factor 1/C). Briefly: femtosecond UV laser crosslinking, western blot; 200 mM NaCl; 50 nJ pulses, total energy titrated; NF1 binding buffer: 5 mM Tris-Cl pH 8.0, 90 mM NaCl (200 mM for EMSA and Fig. 2d), 0.5 mM EDTA, 5% glycerol, 0.55 mM beta-mercaptoethanol, 1 ug BSA; TBP: same + 2 mM MgCl2; 25 min, room temperature. Particulars: protein: recombinant; tags: 6xHis; chain copies: 2; label: 5'-biotin on both strands.

In data set [3] the target is TBP (TATA-box binding protein) (Homo sapiens, UniProt P20226 1-339). Briefly: femtosecond UV laser crosslinking, western blot; 2 mM MgCl2; 50 nJ, 1.25 J; NF1 binding buffer: 5 mM Tris-Cl pH 8.0, 90 mM NaCl (200 mM for EMSA and Fig. 2d), 0.5 mM EDTA, 5% glycerol, 0.55 mM beta-mercaptoethanol, 1 ug BSA; TBP: same + 2 mM MgCl2; 25 min, room temperature. The following applies: protein: commercial; label: 5'-biotin on both strands.
Sequence of TBP (TATA-box binding protein) (P20226 whole entry): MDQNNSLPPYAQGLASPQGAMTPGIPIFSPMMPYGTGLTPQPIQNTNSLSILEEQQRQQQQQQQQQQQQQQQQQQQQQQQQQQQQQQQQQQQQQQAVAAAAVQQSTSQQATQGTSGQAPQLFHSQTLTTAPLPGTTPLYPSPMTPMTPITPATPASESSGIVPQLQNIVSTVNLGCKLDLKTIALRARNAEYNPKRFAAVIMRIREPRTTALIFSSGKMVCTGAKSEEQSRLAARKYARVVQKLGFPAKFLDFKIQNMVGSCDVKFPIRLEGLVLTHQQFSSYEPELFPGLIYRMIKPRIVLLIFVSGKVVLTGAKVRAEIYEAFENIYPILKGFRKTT

T1 sequence (P21999 whole entry): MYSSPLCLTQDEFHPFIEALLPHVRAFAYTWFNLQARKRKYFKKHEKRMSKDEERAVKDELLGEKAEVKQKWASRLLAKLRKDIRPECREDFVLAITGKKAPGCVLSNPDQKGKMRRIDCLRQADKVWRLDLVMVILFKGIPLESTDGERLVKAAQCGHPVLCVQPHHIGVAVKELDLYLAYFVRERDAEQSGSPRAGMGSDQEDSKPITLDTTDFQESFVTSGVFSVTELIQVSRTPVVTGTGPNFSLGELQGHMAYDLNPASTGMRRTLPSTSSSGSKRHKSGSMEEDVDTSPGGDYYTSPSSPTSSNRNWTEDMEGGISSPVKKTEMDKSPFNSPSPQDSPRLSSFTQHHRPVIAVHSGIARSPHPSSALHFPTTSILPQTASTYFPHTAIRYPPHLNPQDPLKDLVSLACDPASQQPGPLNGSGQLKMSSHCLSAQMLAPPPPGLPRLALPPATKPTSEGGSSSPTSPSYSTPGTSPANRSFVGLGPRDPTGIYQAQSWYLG

B1: NF1 wild-type consensus oligo (dsDNA)
DNA 1: AATTCCTTTTTTTGGATTGAAGCCAATCGGATAATGAGG
DNA 2: CCTCATTATCCGATTGGCTTCAATCCAAAAAAAGGAATT
Regarding B1, the binding result with NF1 (nuclear factor 1/C) [1] is on record as “binds”.

B2: NF1 wild-type oligo of Fig. 2d (dsDNA)
DNA 1: AAGTCCTTTTTTAGGATTGAAGCCAATCGGCTGATGAGG
DNA 2: CCTCATCAGCCGATTGGCTTCAATCCTAAAAAAGGACTT
Regarding B2, the binding result with NF1 (nuclear factor 1/C) [2] is listed as “binds”.

B3: TBP wild-type AdML TATAA oligo (dsDNA)
DNA 1: CCTGAAGGGGGGCTATAAAAGGGGGTGGGGGCGCG
DNA 2: CGCGCCCCCACCCCCTTTTATAGCCCCCCTTCAGG
B3: the binding result in data set [3] was “binds”.

These data come from article PMC7295792, “Atomic-resolution mapping of transcription factor-DNA interactions by femtosecond laser crosslinking and mass spectrometry”.
